Positions count from the first letter of the chain named. Numbers in names are those of the source.

Consider two molecules from patent US8304236B2, “Modified biotin-binding protein” (Japan Tobacco Inc., priority 2008, dated 2012).

The subject of one data set is human serum protein. The data set is described as follows: Non-specific adsorption of low-pI TM2 to human serum protein-immobilized magnetic beads. It counts as binding. The following applies: wild type TM2 = 100. The procedure:
In this embodiment, non-specific binding to human serum was investigated as non-specific adsorption of low-pI TM2 to serum protein-immobilized magnetic beads. Specifically, in order to investigate the non-specific binding of low-pI TM2, the amount of low-pI TM2 adsorbed to magnetic beads to which human serum protein was covalently bonded was measured. TM2 K26A, TM2 K73Q, TM2 R104E, TM2 K141E, and TM2 R104EK141E, which were highly expressed in Escherichia coli, were used as the low-pI TM2 to be investigated.
Human serum protein and magnetic beads were bound to each other as follows. Magnetic beads having surfaces coated with carboxyl groups (Dynabeads M-270 Carboxylic Acid, Dynal, 210 μL) were washed with 0.01 N sodium hydroxide (210 μL) for 10 minutes and then with ultrapure water (210 μL) for 10 minutes three times. To the washed magnetic beads, 1-ethyl-3-(3-dimethylaminopropyl)carbodiimide hydrochloride (EDC, PIERCE) dissolved in cooled ultrapure water was added into a final concentration of 0.2 M, and the mixture was shaken at room temperature for 30 minutes. Then, the magnetic beads were washed with cooled ultrapure water (210 μL) and then with 50 mM MES buffer (pH 5.0, 210 μL).
To the magnetic beads, 1 mg/mL human serum protein (CHEMICON, 210 μL) dialyzed with 50 mM MES buffer (pH 5.0) was added. The mixture was shaken at room temperature for 30 minutes to covalently bind the human serum protein to the magnetic beads. The magnetic beads were collected with a magnet to remove the supernatant. The unreacted active groups on the beads were eliminated with 50 mM tris buffer (pH 7.0, 210 μL), and then the magnetic beads were blocked with a PBS buffer (420 μL) containing 0.5% BSA and 0.1% Tween 20. The magnetic beads were suspended in a PBS buffer (210 μL) to obtain human serum protein-immobilized magnetic beads.
The magnetic beads (7 μL) and 0.56 μg/mL of each low-pI TM2 (100 μL) were mixed for reaction at room temperature for 1 hour. The magnetic beads were collected with a magnetic, and the supernatant was removed. After washing with 20 mM potassium phosphate buffer (500 μL) containing 500 mM sodium chloride, the magnetic beads were mixed with 20 μL of 2×SDS sample buffer (250 mM Tris-HCl, pH 6.8, 20% 2-mercaptoethanol, 20% SDS, 20% glycerol), followed by heating at 95° C. for 20 minutes to dissociate the low-pI TM2 from the magnetic beads.
This sample was subjected to SDS-PAGE and then western blotting analysis to determine the amount of the low-pI TM2. Anti-tamavidin 2 rabbit antibody and alkaline phosphatase-labeled anti-rabbit IgG goat antibody were used as the primary antibody and the secondary antibody, respectively. The bands were detected with Alkaline Phosphatase Substrate Kit II <VECTOR Black> (VECTRO) and were quantified with Las-3000 (FUJIFILM).

The nature of data set [1]: Heat stability of protein structure (soluble protein after heating, SDS-PAGE). It is filed as physicochemical. The conditions noted are these: for Thermal stability (temp. at which 50% of protein was lost): heated for 20 minutes. As to the method:
3-8) Heat Stability of HALU TM2 Protein Structure Each of 0.2 μg/μL TM2 mutant solutions (10 μL (2 μg)) was heated at room temperature, 50, 60, 70, 80, 90, or 99° C. for 20 minutes. Then, the solution was centrifuged at 15000 rpm for 10 minutes, and the soluble protein in the supernatant was suspended in the same volume of 2×SDS sample buffer (250 mM Tris-HCl, pH 6.8, 20% 2-mercaptoethanol, 20% SDS, 20% glycerol). The suspension was heated at 95° C. for 10 minutes, followed by SDS-PAGE. The protein bands were detected by CBB staining A standard curve was prepared using a quantitative marker (LMW ELECTROPHORESIS CALIBRATION KIT; Pharmacia Biotech) with Las-3000 (FUJIFILM) to quantify the protein bands.

A short description of data set [2]: Biotin-binding test (Biacore 3000, biotin-LC-BSA immobilized). As to the method: High-purity BSA (Sigma, 2 mg) and NHS-LC-biotin (Pierce, 1 mg) were dissolved in 50 mM sodium borate (pH 8.0, 1 mL) and were incubated at 4° C. for 2 hours. The solution was put into a dialysis tube (MWCO 6-8,000) and was dialyzed with 50 mM sodium carbonate (pH 6.7) at 4° C. overnight. The resulting biotin-LC-BSA conjugate (MW: 67 kDa, 30 μM) was used as a ligand for a Biacore (registered trademark) biosensor.
Biotin-LC-BSA and BSA serving as a negative control were immobilized on CM5 sensor chips by amine coupling method. The amount for immobilization was adjusted to about 200 RU. The chips to which BSA was immobilized were disposed in flow cells 1 and 3, while the chips to which biotin-LC-BSA was immobilized were disposed in flow cells 2 and 4.
Accordingly, seven step measurement (3.125, 6.25, […], 25, 50, 100, and 200 nM) was conducted from the lowest concentration, without recycling steps. The data of BSA as reference was deducted from the data of BSA-LC-biotin. The measurement was performed at 25° C. The resulting sensorgrams were subjected to reaction kinetics analysis using analysis software BIAevaluation ver. 4.1 with a 1:1 binding model to calculate the binding rate constant (ka) and the dissociation rate constant (kd). The dissociation constant (KD) was determined from kd/ka. In the case where no recycling step is employed, the Rmax (maximum amount of binding analyte) decreases at each measurement. Accordingly, in the analysis, the Rmax was calculated by conducting local fitting for each concentration, and only the data of analyte concentrations that were approximated to the 1:1 binding model was employed.
TM2 and HALU TM2 used as analytes were prepared by purification with 2-iminobiotin agarose in accordance with a common method and dialysis with 20MM KPi (pH 7) overnight. The analytes were each adjusted to about 50 μg/mL in 10 mM acetate buffer (pH 5, Biacore).
The immobilization of the ligand and measurement and analysis of specific interaction with the analytes were conducted as in paragraph 2-7-2).
A general note: Surface plasmon resonance follows binding to a sensor surface in real time, without labels.

B1: TM2: wild type tamavidin 2, biotin-binding protein from Pleurotus cornucopiae, amino acid sequence SEQ ID NO: 2 (protein, listed as Pleurotus cornucopiae)
chain: MSDVQSSLTGTWYNELNSKMELTANKDGTLTGKYLSKVGDVYVPYPLSGRYNLQPPAGQGVALGWAVSWENSKIHSATTWSGQFFSESSPVILTQWLLSSSTARGDVWESTLVGNDSFTKTAPTEQQIAHAQLHCRAPRLK
With B1, the “Non-specific binding of serum protein (%)” value in the data set on human serum protein worked out at 100%. For the same molecule, the figures for the “Thermal stability (temp. at which 50% of protein was lost)” value in data set [1] and in data set [1] (listed as TM2WT) were 87.5 °C and 86 °C, respectively. Besides, the “dissociation from biotin-LC-BSA” value in data set [2] (dissociation monitored for 60 minutes) was “not dissociated”.

B2: TM2 D40NR104EK141E: TM2 mutant having mutation of D40N and R104EK141E; SEQ ID NO: 24 (protein)
chain: B1 chain with D40N, R104E, K141E
modifications: Synthetic TM2 D40NR104EK141E
For the molecule B2, the “protein remained after heating” value in data set [1] (heated at 99° C. for 20 minutes) was 78%. Also, the “Thermal stability (temp. at which 50% of protein was lost)” value in data set [1] turned out to be 99 °C or. Besides, in data set [2] (Biotin-BSA (22.4 Å)), the ka is reported as 1.5 × 10^6. The kd result in data set [2] (Biotin-BSA (22.4 Å), values in parentheses) is “(1.4 × 10^−8)”.
